Experimental data taken from article PMC11564870.

T1: Monbr Sox-like HMG (Monosiga brevicollis, UniProt A9VCR9 107-175)
T1 sequence: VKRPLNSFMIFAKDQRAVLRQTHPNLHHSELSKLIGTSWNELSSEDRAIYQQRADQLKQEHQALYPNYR

B1: SoxOct canonical (dsDNA)
DNA 1: GCGGCATTGTCATGCAAATCGGCGG
DNA 2: CCGCCGATTTGCATGACAATGCCGC
B2: Sox consensus (dsDNA)
DNA 1: GGCGGCGGCATTGTCCGGCGCGCGG
DNA 2: CCGCGCGCCGGACAATGCCGCCGCC

How the values were obtained:
mOct4 POU;mSox2 HMG = mOct4 POU;mSox2 HMG (mouse;mouse, UniProt P20263;P48432 131-282;41-119, |); assay: EMSA
mOct4 POU;mSox2 HMG, sequence (P20263 131-282, chain 1 of 2): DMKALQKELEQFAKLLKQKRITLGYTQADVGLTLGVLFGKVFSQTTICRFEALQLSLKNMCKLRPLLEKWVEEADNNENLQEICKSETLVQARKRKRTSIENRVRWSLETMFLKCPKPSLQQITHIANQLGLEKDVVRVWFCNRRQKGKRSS
mOct4 POU;mSox2 HMG, sequence (P48432 41-119, chain 2 of 2): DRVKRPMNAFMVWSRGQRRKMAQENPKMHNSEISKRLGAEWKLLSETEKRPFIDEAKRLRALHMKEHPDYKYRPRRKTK

Monbr Sox-like HMG = biological target: T1, Monbr Sox-like HMG; assay: EMSA

| Binder | binding result (mOct4 POU;mSox2 HMG) | binding result (Monbr Sox-like HMG) |
| --- | --- | --- |
| B1 | binds |  |
| B2 |  | no binding |
